Results from patent US20210171596A1 (published 2021).

T1: IL10R1-Fc (human, UniProt Q13651 22-235)
T1 chain: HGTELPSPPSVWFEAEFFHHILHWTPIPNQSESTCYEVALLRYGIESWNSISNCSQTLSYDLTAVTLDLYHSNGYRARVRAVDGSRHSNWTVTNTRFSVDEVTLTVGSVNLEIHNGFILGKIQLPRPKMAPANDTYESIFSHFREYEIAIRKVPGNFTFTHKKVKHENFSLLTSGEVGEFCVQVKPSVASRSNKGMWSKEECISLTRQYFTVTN

B1: XENP25768 (E151Q) (protein)
chain 1: EPKSSDKTHTCPPCPAPPVAGPSVFLFPPKPKDTLMISRTPEVTCVVVDVKHEDPEVKFNWYVDGVEVHNAKTKPREEEYNSTYRVVSVLTVLHQDWLNGKEYKCKVSNKALPAPIEKTISKAKGQPREPQVYTLPPSREEMTKNQVSLTCDVSGFYPSDIAVEWESDGQPENNYKTTPPVLDSDGSFFLYSKLTVDKSRWEQGDVFSCSVMHEALHNHYTQKSLSLSPGK
chain 2: SPGQGTQSENSCTHFPGNLPNMLRDLRDAFSRVKTFFQMKDQLDNLLLKESLLEDFKGYLGCQALSEMIQFYLEEVMPQAENQDPDIKAHVNSLGENLKTLRLRLRRCHRFLPCENGGGSGGKSKAVEQVKNAFNKLQEKGIYKAMSEFDIFINYIQAYMTMKIRNEPKSSDKTHTCPPCPAPPVAGPSVFLFPPKPKDTLMISRTPEVTCVVVDVKHEDPEVKFNWYVDGVEVHNAKTKPREEQYNSTYRVVSVLTVLHQDWLNGKEYKCKVSNKALPAPIEKTISKAKGQPREPQVYTLPPSREQMTKNQVKLTCLVKGFYPSDIAVEWESNGQPENNYKTTPPVLDSDGSFFLYSKLTVDKSRWQQGNVFSCSVMHEALHNHYTQKSLSLSPGK
B2: XENP25757 (D41N) (protein)
chain 1: EPKSSDKTHTCPPCPAPPVAGPSVFLFPPKPKDTLMISRTPEVTCVVVDVKHEDPEVKFNWYVDGVEVHNAKTKPREEEYNSTYRVVSVLTVLHQDWLNGKEYKCKVSNKALPAPIEKTISKAKGQPREPQVYTLPPSREEMTKNQVSLTCDVSGFYPSDIAVEWESDGQPENNYKTTPPVLDSDGSFFLYSKLTVDKSRWEQGDVFSCSVMHEALHNHYTQKSLSLSPGK
chain 2: SPGQGTQSENSCTHFPGNLPNMLRDLRDAFSRVKTFFQMKNQLDNLLLKESLLEDFKGYLGCQALSEMIQFYLEEVMPQAENQDPDIKAHVNSLGENLKTLRLRLRRCHRFLPCENGGGSGGKSKAVEQVKNAFNKLQEKGIYKAMSEFDIFINYIEAYMTMKIRNEPKSSDKTHTCPPCPAPPVAGPSVFLFPPKPKDTLMISRTPEVTCVVVDVKHEDPEVKFNWYVDGVEVHNAKTKPREEQYNSTYRVVSVLTVLHQDWLNGKEYKCKVSNKALPAPIEKTISKAKGQPREPQVYTLPPSREQMTKNQVKLTCLVKGFYPSDIAVEWESNGQPENNYKTTPPVLDSDGSFFLYSKLTVDKSRWQQGNVFSCSVMHEALHNHYTQKSLSLSPGK
B3: XENP25755 (Q38E) (protein)
chain 1: EPKSSDKTHTCPPCPAPPVAGPSVFLFPPKPKDTLMISRTPEVTCVVVDVKHEDPEVKFNWYVDGVEVHNAKTKPREEEYNSTYRVVSVLTVLHQDWLNGKEYKCKVSNKALPAPIEKTISKAKGQPREPQVYTLPPSREEMTKNQVSLTCDVSGFYPSDIAVEWESDGQPENNYKTTPPVLDSDGSFFLYSKLTVDKSRWEQGDVFSCSVMHEALHNHYTQKSLSLSPGK
chain 2: SPGQGTQSENSCTHFPGNLPNMLRDLRDAFSRVKTFFEMKDQLDNLLLKESLLEDFKGYLGCQALSEMIQFYLEEVMPQAENQDPDIKAHVNSLGENLKTLRLRLRRCHRFLPCENGGGSGGKSKAVEQVKNAFNKLQEKGIYKAMSEFDIFINYIEAYMTMKIRNEPKSSDKTHTCPPCPAPPVAGPSVFLFPPKPKDTLMISRTPEVTCVVVDVKHEDPEVKFNWYVDGVEVHNAKTKPREEQYNSTYRVVSVLTVLHQDWLNGKEYKCKVSNKALPAPIEKTISKAKGQPREPQVYTLPPSREQMTKNQVKLTCLVKGFYPSDIAVEWESNGQPENNYKTTPPVLDSDGSFFLYSKLTVDKSRWQQGNVFSCSVMHEALHNHYTQKSLSLSPGK
B4: XENP25767 (D144N) (protein)
chain 1: EPKSSDKTHTCPPCPAPPVAGPSVFLFPPKPKDTLMISRTPEVTCVVVDVKHEDPEVKFNWYVDGVEVHNAKTKPREEEYNSTYRVVSVLTVLHQDWLNGKEYKCKVSNKALPAPIEKTISKAKGQPREPQVYTLPPSREEMTKNQVSLTCDVSGFYPSDIAVEWESDGQPENNYKTTPPVLDSDGSFFLYSKLTVDKSRWEQGDVFSCSVMHEALHNHYTQKSLSLSPGK
chain 2: SPGQGTQSENSCTHFPGNLPNMLRDLRDAFSRVKTFFQMKDQLDNLLLKESLLEDFKGYLGCQALSEMIQFYLEEVMPQAENQDPDIKAHVNSLGENLKTLRLRLRRCHRFLPCENGGGSGGKSKAVEQVKNAFNKLQEKGIYKAMSEFNIFINYIEAYMTMKIRNEPKSSDKTHTCPPCPAPPVAGPSVFLFPPKPKDTLMISRTPEVTCVVVDVKHEDPEVKFNWYVDGVEVHNAKTKPREEQYNSTYRVVSVLTVLHQDWLNGKEYKCKVSNKALPAPIEKTISKAKGQPREPQVYTLPPSREQMTKNQVKLTCLVKGFYPSDIAVEWESNGQPENNYKTTPPVLDSDGSFFLYSKLTVDKSRWQQGNVFSCSVMHEALHNHYTQKSLSLSPGK

Molecular target: T1, IL10R1-Fc
Assay: BLI; marked *

Binder	Kd
B1	12.4 nM
B2	12.4 nM
B3	6.13 nM
B4	23.8 nM
